Data published in IntAct's records for PubMed 21505419.

B1: Suppressor protein STP22 of temperature-sensitive alpha-factor receptor and arginine permease (Saccharomyces cerevisiae), P25604 (parent)
chain: MSANGKISVPEAVVNWLFKVIQPIYNDGRTTFHDSLALLDNFHSLRPRTRVFTHSDGTPQLLLSIYGTISTGEDGSSPHSIPVIMWVPSMYPVKPPFISINLENFDMNTISSSLPIQEYIDSNGWIALPILHCWDPAAMNLIMVVQELMSLLHEPPQDQAPSLPPKPNTQLQQEQNTPPLPPKPKSPHLKPPLPPPPPPQPASNALDLMDMDNTDISPTNHHEMLQNLQTVVNELYREDVDYVADKILTRQTVMQESIARFHEIIAIDKNHLRAVEQAIEQTMHSLNAQIDVLTANRAKVQQFSSTSHVDDEDVNSIAVAKTDGLNQLYNLVAQDYALTDTIECLSRMLHRGTIPLDTFVKQGRELARQQFLVRWHIQRITSPLS
partner: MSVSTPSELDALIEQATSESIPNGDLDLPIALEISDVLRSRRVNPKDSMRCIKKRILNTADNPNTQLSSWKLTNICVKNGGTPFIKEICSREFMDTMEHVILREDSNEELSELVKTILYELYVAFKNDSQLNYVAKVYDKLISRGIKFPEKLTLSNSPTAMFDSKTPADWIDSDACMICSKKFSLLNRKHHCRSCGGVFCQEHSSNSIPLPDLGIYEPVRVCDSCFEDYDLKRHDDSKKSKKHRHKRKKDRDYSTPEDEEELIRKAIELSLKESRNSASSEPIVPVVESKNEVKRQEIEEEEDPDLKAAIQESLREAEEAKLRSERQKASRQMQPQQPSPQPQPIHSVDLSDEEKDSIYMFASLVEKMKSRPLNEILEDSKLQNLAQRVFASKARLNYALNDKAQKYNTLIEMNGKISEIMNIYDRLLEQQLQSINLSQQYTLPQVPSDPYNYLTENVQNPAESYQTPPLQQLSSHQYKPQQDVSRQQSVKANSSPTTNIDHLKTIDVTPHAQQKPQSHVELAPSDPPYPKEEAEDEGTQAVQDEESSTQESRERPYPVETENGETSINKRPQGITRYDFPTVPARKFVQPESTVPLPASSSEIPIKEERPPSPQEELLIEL

Variants of: B1
Conditions: with vps27_yeast VPS27, P40343

Variant | effect of a mutation on the interaction
MSANGKISVPEAVVNALFKVIQPIYNDGRTTFHDSLALLDNFHSLRPRTRVFTHSDGTPQLLLSIYGTISTGEDGSSPHSIPVIMWVPSMYPVKPPFISINLENFDMNTISSSLPIQEYIDSNGWIALPILHCWDPAAMNLIMVVQELMSLLHEPPQDQAPSLPPKPNTQLQQEQNTPPLPPKPKSPHLKPPLPPPPPPQPASNALDLMDMDNTDISPTNHHEMLQNLQTVVNELYREDVDYVADKILTRQTVMQESIARFHEIIAIDKNHLRAVEQAIEQTMHSLNAQIDVLTANRAKVQQFSSTSHVDDEDVNSIAVAKTDGLNQLYNLVAQDYALTDTIECLSRMLHRGTIPLDTFVKQGRELARQQFLVRWHIQRITSPLS [W16A] | disrupting interaction

Variants of: B1
Conditions: with vps27_yeast VPS27, P40343
Remark: another data set of the same source

Variant | effect of a mutation on the interaction
MSANGKISVPEAVVNWLFKVIQPIYNDGRTTFHDSLALLDNFHSLRPRVRVFTHSDGTPQLLLSIYGTISTGEDGSSPHSIPVIMWVPSMYPVKPPFISINLENFDMNTISSSLPIQEYIDSNGWIALPILHCWDPAAMNLIMVVQELMSLLHEPPQDQAPSLPPKPNTQLQQEQNTPPLPPKPKSPHLKPPLPPPPPPQPASNALDLMDMDNTDISPTNHHEMLQNLQTVVNELYREDVDYVADKILTRQTVMQESIARFHEIIAIDKNHLRAVEQAIEQTMHSLNAQIDVLTANRAKVQQFSSTSHVDDEDVNSIAVAKTDGLNQLYNLVAQDYALTDTIECLSRMLHRGTIPLDTFVKQGRELARQQFLVRWHIQRITSPLS [T49V] | decreasing interaction

Variants of: B1
Conditions: with vps27_yeast VPS27, P40343
Remark: another data set of the same source

Variant | effect of a mutation on the interaction
MSANGKISVPEAVVNWLFKVIQPIYNDGRTTFHDSLALLDNFHSLRPRTRVFTHSDGTPQNLLSIYGTISTGEDGSSPHSIPVIMWVPSMYPVKPPFISINLENFDMNTISSSLPIQEYIDSNGWIALPILHCWDPAAMNLIMVVQELMSLLHEPPQDQAPSLPPKPNTQLQQEQNTPPLPPKPKSPHLKPPLPPPPPPQPASNALDLMDMDNTDISPTNHHEMLQNLQTVVNELYREDVDYVADKILTRQTVMQESIARFHEIIAIDKNHLRAVEQAIEQTMHSLNAQIDVLTANRAKVQQFSSTSHVDDEDVNSIAVAKTDGLNQLYNLVAQDYALTDTIECLSRMLHRGTIPLDTFVKQGRELARQQFLVRWHIQRITSPLS [L61N] | decreasing interaction
